Data on two molecules can be found in PMC5765355, “Phosphorylation of Pnut in the Early Stages of Drosophila Embryo Development Affects Association of the Septin Complex with the Membrane and Is Important for Viability” (G3: Genes|Genomes|Genetics, 2017).

Residue numbers refer to the chain shown, from its start.

What all share (conditions): both partners purified
The target in assay [1] is T1, His-tagged phospho-mimetic Pnut-T509E/S517E (Drosophila melanogaster, UniProt P40797 1-539, T509E | S517E).
T1 construct: Septin Pnut (Peanut), Drosophila melanogaster, with T509E and S517E; also called T509E/S517E mutant; source: baculovirus expression system, expressed together with Sep1 and Sep2; assembled complex purified
T1 sequence (looked up): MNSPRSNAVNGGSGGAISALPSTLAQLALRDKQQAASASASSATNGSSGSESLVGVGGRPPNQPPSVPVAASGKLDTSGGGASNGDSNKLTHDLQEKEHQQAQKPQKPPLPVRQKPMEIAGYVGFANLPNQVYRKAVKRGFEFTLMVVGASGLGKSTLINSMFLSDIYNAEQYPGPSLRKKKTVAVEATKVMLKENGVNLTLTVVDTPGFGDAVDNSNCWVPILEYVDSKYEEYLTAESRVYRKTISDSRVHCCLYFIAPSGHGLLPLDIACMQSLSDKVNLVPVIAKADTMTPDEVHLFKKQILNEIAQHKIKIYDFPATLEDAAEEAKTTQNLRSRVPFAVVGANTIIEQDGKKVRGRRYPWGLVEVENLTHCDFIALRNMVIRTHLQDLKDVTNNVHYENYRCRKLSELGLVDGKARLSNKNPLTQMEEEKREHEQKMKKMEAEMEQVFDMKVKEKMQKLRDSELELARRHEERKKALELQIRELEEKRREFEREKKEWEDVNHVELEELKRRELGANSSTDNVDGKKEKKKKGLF
Kind of assay: pull-down; 2 µg purified recombinant septin complex diluted in 200 µl pull-down buffer (25 mM HEPES pH 7.6, 2 mM MgCl2, 10 mM imidazole) with 50 mM KCl; His-Pnut held on HisPur Ni-NTA resin, 1 hr at 22°; eluted with 250 mM imidazole; silver-stained SDS-PAGE; Sep1 given as a percentage of the Pnut amount.

Assay [2] has as its target T2, His-tagged wild-type Pnut (Drosophila melanogaster, UniProt P40797 1-539).
T2 construct: Septin Pnut (Peanut), Drosophila melanogaster, wild type; homolog of human SEPT7; also called His–Pnut; Pnut-WT; source: baculovirus expression system, expressed together with Sep1 and Sep2; assembled complex purified
T2 sequence (looked up): T1 sequence (looked up) with E509T, E517S
In words: pull-down; 2 µg purified recombinant septin complex diluted in 200 µl pull-down buffer (25 mM HEPES pH 7.6, 2 mM MgCl2, 10 mM imidazole) with 300 mM KCl; His-Pnut held on HisPur Ni-NTA resin, 1 hr at 22°; eluted with 250 mM imidazole; silver-stained SDS-PAGE; Sep1 given as a percentage of the Pnut amount.

Assay [3] concerns the target T3, His-tagged nonphosphorylatable Pnut-T509A/S517A (Drosophila melanogaster, UniProt P40797 1-539, T509A | S517A).
T3 construct: Septin Pnut (Peanut), Drosophila melanogaster, with T509A and S517A; source: baculovirus expression system, expressed together with Sep1 and Sep2; assembled complex purified
T3 sequence (looked up): T1 sequence (looked up) with E509A, E517A
The description is as above.

The target in assay [4] is T2, His-tagged wild-type Pnut. Kind of assay: pull-down; 2 µg purified recombinant septin complex diluted in 200 µl pull-down buffer (25 mM HEPES pH 7.6, 2 mM MgCl2, 10 mM imidazole) with 50 mM KCl; His-Pnut held on HisPur Ni-NTA resin, 1 hr at 22°; eluted with 250 mM imidazole; silver-stained SDS-PAGE; Sep1 given as a percentage of the Pnut amount.
Assay [5] has as its target T3, His-tagged nonphosphorylatable …. Described as above.
The target of assay [6] is T1, His-tagged phospho-mimetic …. Kind of assay: pull-down; 2 µg purified recombinant septin complex diluted in 200 µl pull-down buffer (25 mM HEPES pH 7.6, 2 mM MgCl2, 10 mM imidazole) with 300 mM KCl; His-Pnut held on HisPur Ni-NTA resin, 1 hr at 22°; eluted with 250 mM imidazole; silver-stained SDS-PAGE; Sep1 given as a percentage of the Pnut amount.

B1: Sep2 (recombinant) (natural protein, Drosophila melanogaster, UniProt P54359 1-419, looked up)
chain: MSVEVDFVDKKEVHLRTLKQSGHVGFDSLPDQLVNKSVQNGFVFNVMCIGETGLGKSTLMDTLFNTSFESTPSPHTLPSVKLKAHTYELQESNVRLKLTICDTVGYGDQINKDDSFKAVVDYIDAQFENYLQEELKIKRSLVTCHDSRIHICLYFICPTGHGLKSLDLVCMKKLDSKVNIIPVIAKADTISKVELQRFKAKIIQELNANGVHIYQFPTDDETVAETNTSMNSHIPFAVVGSTEFIKVGNKLIRARQYPWGTVQVENETHCDFVKLREMLIRTNMEDMREKTHTRHYELYRQKRLEQMGFSDVDSDNKPISFQQTFEAKRSNHLAELQSKEEEVRQMFVQRVKEKEAELKESEKDLHAKFEKLKRDHAEEKRKLEESRKALEEDYLDFQRRKQQLATAHHTLTLGKSKKK
notes: Septin Sep2, Drosophila melanogaster; homolog of human SEPT6; source: baculovirus expression system, expressed together with His-tagged Pnut and Sep1; assembled complex purified
In the case of B1, the binding result in assay [1], in assay [2] and in assay [3] was “binds” each time.

B2: Sep1 (recombinant) (natural protein, Drosophila melanogaster, UniProt P42207 1-361, looked up)
chain: MADTKGFSSIETPGYVGFANLPNQVHRKSVKKGFEFTLMVVGESGLGKSTLVNSLFLTDLYPERIIPDAIEKQKQTVKLEASTVEIEERGVKLRLTVVDTPGFGDAIDNSNSFGAILEYIDEQYERFLRDESGLNRRNIVDNRIHCCFYFISPFGHGLKPLDVEFMKKLHSKVNIVPVIAKADCLTKKEILRLKCRIMQEIESHGIKIYPLPDCDSDEDEDYKEQVKQLKEAVPFAVCGANTLLEVKGKKVRGRLYPWGVVEVENPDHCDFIKLRTMLITHMQDLQEVTQEVHYENYRSDRLAKGIKGKENGVKAERDSSSQVVSNSVLGEKDRILQEKEAELRRMQEMLAQMQARMQAQQ
notes: Septin Sep1, Drosophila melanogaster; homolog of human SEPT2; source: baculovirus expression system, expressed together with His-tagged Pnut and Sep2; assembled complex purified
Regarding B2, the “amount of Sep1 as a percentage of the Pnut amount” value in assay [4] stood at 34%; in assay [1], 1%; in assay [5], 17%; in assay [2], 62.3%; in assay [6], 31%; in assay [3], 62%.
